Key:
[1] = molecular target: recombinant murine uracil DNA glycosylase (UNG) (Mus musculus, UniProt P97931); assay: ELISA
[2] = molecular target: viral UNG (vUNG) expressed in transfected 293 cells (Murid herpesvirus 4 (MHV68), isolate …, UniProt P88984); assay: immunostaining of cells or tissue
[3] = molecular target: vUNG expressed in MHV68-infected 3T12 cells (Murid herpesvirus 4 (MHV68 wild type …, UniProt P88984)); assay: flow cytometry on cells

recombinant murine uracil DNA glycosylase (UNG), sequence (P97931 whole entry): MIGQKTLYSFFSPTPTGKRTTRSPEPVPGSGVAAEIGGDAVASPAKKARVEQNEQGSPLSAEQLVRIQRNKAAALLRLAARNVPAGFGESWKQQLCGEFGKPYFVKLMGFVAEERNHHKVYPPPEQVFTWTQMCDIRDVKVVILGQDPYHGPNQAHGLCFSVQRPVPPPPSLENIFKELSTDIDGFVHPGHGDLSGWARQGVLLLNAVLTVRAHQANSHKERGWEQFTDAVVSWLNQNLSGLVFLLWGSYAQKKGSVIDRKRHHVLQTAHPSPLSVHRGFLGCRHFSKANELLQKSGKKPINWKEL

B1: recombinant mouse anti-vUNG antibody (against MHV68 ORF46 / viral uracil DNA glycosylase) (antibody, V domains shown)
VH: QVQLQQPGAELVKPGASVKMSCKASGYTFTSYWITWVKQRPGQGLEWIGDIYPGSGSTKYNEKFKSKATLTVDTSSSTAYMQLSSLTSEDSAVYYCARLDYYYAMDYWGQGTSVTVSS
VL: DIVMTQSQKFMSTSVGDRVSVTCKASQNVGTNVAWYQQKPGQSPKALIYSASYRYSGVPDRFTGSGSGTDFTLTISNVPSEDLAEYFCQQYNNYPLTFGSGTKLEIK
[1]
  binding result: no binding
[2]
  binding result: binds
[3]
  binding result: binds

Source: publication PMC10245680 (bioRxiv, 2023)
